# From patent US20200150041
# System: SDM-25
# Sequence of MMP9 protease (chain, as listed by the source): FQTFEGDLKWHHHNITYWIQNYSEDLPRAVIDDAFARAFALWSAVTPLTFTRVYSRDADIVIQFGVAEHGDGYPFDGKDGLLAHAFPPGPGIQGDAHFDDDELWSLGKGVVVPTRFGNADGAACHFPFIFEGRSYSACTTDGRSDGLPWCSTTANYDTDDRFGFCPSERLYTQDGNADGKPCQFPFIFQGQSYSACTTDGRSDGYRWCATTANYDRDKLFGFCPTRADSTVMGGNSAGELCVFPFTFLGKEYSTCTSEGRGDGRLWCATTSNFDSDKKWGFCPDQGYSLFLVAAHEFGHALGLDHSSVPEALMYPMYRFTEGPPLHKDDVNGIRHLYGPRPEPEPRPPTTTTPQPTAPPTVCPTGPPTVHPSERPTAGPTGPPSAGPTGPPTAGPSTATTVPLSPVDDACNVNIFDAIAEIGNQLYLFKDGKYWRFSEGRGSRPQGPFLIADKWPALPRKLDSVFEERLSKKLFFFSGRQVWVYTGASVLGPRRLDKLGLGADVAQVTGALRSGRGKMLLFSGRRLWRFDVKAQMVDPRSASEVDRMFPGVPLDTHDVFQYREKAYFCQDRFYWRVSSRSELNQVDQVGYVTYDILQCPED
substance,measurement,value
MMP9 protease,fluorescence emission spectra (630 nm excitation) before and after protease treatment; FRET loss on cleavage,"After cleavage, Cy7 no longer quenches Cy5, resulting in an increase of the 670 nm Cy5 emission peak and a reduction of the Cy7 re-emission at 780 nm"
